Data set [1] concerns the target T1, SpNOX (Streptococcus pneumoniae, UniProt Q8CZ28).
T1 construct: gene spr0531; full-length membrane protein, codon-optimized synthetic gene, N-terminal His tag (pQLink N), E. coli BL21(DE3) pLysS, purified in MNG detergent; bis-His heme ligands H69, H83, H129, H142
T1 sequence (Q8CZ28 1-400): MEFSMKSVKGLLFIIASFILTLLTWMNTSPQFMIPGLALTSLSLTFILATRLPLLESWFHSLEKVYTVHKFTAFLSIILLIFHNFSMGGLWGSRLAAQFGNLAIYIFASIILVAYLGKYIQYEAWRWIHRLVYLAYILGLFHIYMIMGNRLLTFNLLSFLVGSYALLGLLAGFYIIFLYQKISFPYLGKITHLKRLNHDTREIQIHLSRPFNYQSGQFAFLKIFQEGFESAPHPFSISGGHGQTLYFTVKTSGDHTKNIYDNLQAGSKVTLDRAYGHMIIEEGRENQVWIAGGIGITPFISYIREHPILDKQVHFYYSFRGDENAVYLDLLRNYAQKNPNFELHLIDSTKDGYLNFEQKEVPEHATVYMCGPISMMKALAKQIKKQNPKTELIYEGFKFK
Briefly: cytochrome c reduction, absorbance at […] nm. In kind it is biochemical. Particulars: read-out: 50% inhibitory concentration.

Data set [2] relates to Cc1cc2nc3c(=O)[nH]c(=O)nc-3n(C[C@H](O)[C@H](O)[C@H](O)COP(=O)(O)OP(=O)(O)OC[C@H]3O[C@@H](n4cnc5c(N)ncnc54)[C@H](O)[C@@H]3O)c2cc1C. Briefly: purified protein. In kind it is biochemical, Streptococcus pneumoniae. The note with it: 200 µM NADPH; cytochrome c 100 µM; Figure 3E; varied: cofactor.
The subject of data set [3] is NC(=O)C1=CN([C@@H]2O[C@H](COP(=O)(O)OP(=O)(O)OC[C@H]3O[C@@H](n4cnc5c(N)ncnc54)[C@H](OP(=O)(O)O)[C@@H]3O)[C@@H](O)[C@H]2O)C=CC1. Briefly: purified protein. In kind it is biochemical, Streptococcus pneumoniae. The note with it: 10 µM FAD; cytochrome c 100 µM; Figure 3D.

As to `c1ccc2c(c1)[I+]c1ccccc1-2` [DPI], in data set [1], the IC50 was roughly 5 µM.

In the case of SpNOX (Streptococcus pneumoniae R6), the Km (in general, the concentration of substrate that gives half-maximal velocity) came out at 0.13 µM in data set [2] and 8 µM in data set [3].

Values taken from PMC5676040, “The NOX Family of Proteins Is Also Present in Bacteria” (mBio, 2017).
